Molecular target: the molecule itself
Test: AUC; sedimentation velocity, 35,000 rpm, 15°C; 2.7 µM enolase (subunits) in TME buffer (50 mM Tris/HCl, 1 mM Mg(OAc)2, 0.1 mM EDTA, pH 7.4) without NaClO4; c(s) analysis (SEDFIT), mass also from DLS radius and DCDT+; octamer

B1: wild type octameric enolase from S. pyogenes (enzyme, UniProt P69949 1-435, looked up)
chain: MSIITDVYAREVLDSRGNPTLEVEVYTESGAFGRGMVPSGASTGEHEAVELRDGDKSRYLGLGTQKAVDNVNNIIAEAIIGYDVRDQQAIDRAMIALDGTPNKGKLGANAILGVSIAVARAAADYLEVPLYTYLGGFNTKVLPTPMMNIINGGSHSDAPIAFQEFMIMPVGAPTFKEGLRWGAEVFHALKKILKERGLVTAVGDEGGFAPKFEGTEDGVETILKAIEAAGYEAGENGIMIGFDCASSEFYDKERKVYDYTKFEGEGAAVRTSAEQVDYLEELVNKYPIITIEDGMDENDWDGWKVLTERLGKRVQLVGDDFFVTNTEYLARGIKENAANSILIKVNQIGTLTETFEAIEMAKEAGYTAVVSHRSGETEDSTIADIAVATNAGQIKTGSLSRTDRIAKYNQLLRIEDQLGEVAQYKGIKSFYNLKK
notes: enolase (EC 4.2.1.11) of Streptococcus pyogenes; no removal of the His tag is described; also called wild type enolase; wild type enzyme; source: E. coli BL21(DE3), pET-14b, purified (Ni-NTA, dialysis, (NH4)2SO4 precipitation)
stoichiometry N: 8

From PMC2809091, “Dissociation of the Octameric Enolase from S. Pyogenes - One Interface Stabilizes Another” (PLoS ONE, 2010)
